According to article PMC7175333:

Key:
[1] = biological target: LS_HA_NC99 (lumazine synthase nanoparticle displaying the receptor binding domain of the head of influenza hemagglutinin, H1N1 A/New Caledonia/20/1999) (Aquifex aeolicus | influenza A virus H1N1 A/New Caledonia/20/1999); assay: SEC + SEC-MALS + other: negative stain electron microscopy
[2] = biological target: DLnano_LS_GT8 (DNA‐launched lumazine synthase nanoparticle decorated with eOD‐GT8, produced in vivo) (Aquifex aeolicus); assay: native gel or EMSA; pseudo-native PAGE (3-8% Tris-acetate gel, LDS buffer at room temperature, no boiling) of mouse muscle homogenates 4 d.p.i., blotted with VRC01; SEC-purified recombinant standards alongside

| Substance | stoichiometry N [1] | stoichiometry N [2] |
| --- | --- | --- |
| LS_HA_NC99 (lumazine synthase nanoparticle displaying the receptor binding domain of the head of influenza hemagglutinin, H1N1 A/New Caledonia/20/1999) | 60 |  |
| DLnano_LS_GT8 (DNA‐launched lumazine synthase nanoparticle decorated with eOD‐GT8, produced in vivo) |  | 60 |
